# Results from patent US20240270846A1 (published 2024).
# Numbering of substitutions follows the chain as printed. Numbers in names are those of the source.
# B1: CE115HA000 G98T one-arm antibody (antibody, human IgG1, kappa, L234A L235A, N297A, name in Kabat numbering)
# heavy: QVQLVESGGGVVQPGRSLRLSCAASGFTFSNAWMHWVRQAPGKGLEWVAQIKAKSNNYATYYAESVKGRFTISRDDSKNSLYLQMNSLKTEDTAVYYCRYVHYTAYYGVDAWGQGTTVTVSSASTKGPSVFPLAPSSKSTSGGTAALGCLVKDYFPEPVTVSWNSGALTSGVHTFPAVLQSSGLYSLSSVVTVPSSSLGTQTYICNVNHKPSNTKVDKKVEPKSCDKTHTCPPCPAPEAAGGPSVFLFPPKPKDTLMISRTPEVTCVVVDVSHEDPEVKFNWYVDGVEVHNAKTKPREEQYASTYRVVSVLTVLHQDWLNGKEYKCKVSNKALPAPIEKTISKAKGQPREPQVYTLPPSRCELTKNQVSLSCAVKGFYPSDIAVEWESNGQPENNYKTTPPVLDSDGSFFLVSKLTVDKSRWQQGNVFSCSVMHEALHNHYTQKSLSLSPDYKDDDDK
# chain: EPKSSDKTHTCPPCPAPELLGGPSVFLFPPKPKDTLMISRTPEVTCVVVDVSHEDPEVKFNWYVDGVEVHNAKTKPREEQYNSTYRVVSVLTVLHQDWLNGKEYKCKVSNKALPAPIEKTISKAKGQPREPQVCTLPPSRDELTKNQVSLWCLVKGFYPSDIAVEWESNGQPENNYKTTPPVLDSDGSFFLYSKLTVDKSRWQQGNVFSCSVMHEALHNRYTQKSLSLSP
# light: DIVMTQSPLSLPVTPGEPASISCRSSQSLVHSNRNTYLHWYQQKPGQAPRLLIYKVSNRFSGVPDRFSGSGSGTDFTLKISRVEAEDVGVYYCGQGTQVPYTFGQGTKLEIKRTVAAPSVFIFPPSDEQLKSGTASVVCLLNNFYPREAKVQWKVDNALQSGNSQESVTEQDSKDSTYSLSSTLTLSKADYEKHKVYACEVTHQGLSSPVTKSFNRGEC
# notes: one-arm antibody (one Fab)
# B2: CE115HA000 G100bE one-arm antibody (antibody, human IgG1, kappa, L234A L235A, N297A, name in Kabat numbering)
# heavy: B1 heavy with T104G, G108E
# chain: B1 chain
# light: B1 light
# notes: one-arm antibody (one Fab)
# B3: CE115HA000 N54Q one-arm antibody (antibody, human IgG1, kappa, L234A L235A, N297A, name in Kabat numbering)
# heavy: B1 heavy with N57Q, T104G
# chain: B1 chain
# light: B1 light
# notes: one-arm antibody (one Fab)
# B4: CE115HA000 Q105E one-arm antibody (antibody, human IgG1, kappa, L234A L235A, N297A, name in Kabat numbering)
# heavy: B1 heavy with T104G, Q114E
# chain: B1 chain
# light: B1 light
# notes: one-arm antibody (one Fab)
# B5: CE115HA000 H96Q one-arm antibody (antibody, human IgG1, kappa, L234A L235A, N297A, name in Kabat numbering)
# heavy: B1 heavy with H102Q, T104G
# chain: B1 chain
# light: B1 light
# notes: one-arm antibody (one Fab)
# B6: CE115HA000 N53Y one-arm antibody (antibody, human IgG1, kappa, L234A L235A, N297A, name in Kabat numbering)
# heavy: B1 heavy with N56Y, T104G
# chain: B1 chain
# light: B1 light
# notes: one-arm antibody (one Fab)
# B7: CE115HA000 N53Q one-arm antibody (antibody, human IgG1, kappa, L234A L235A, N297A, name in Kabat numbering)
# heavy: B1 heavy with N56Q, T104G
# chain: B1 chain
# light: B1 light
# notes: one-arm antibody (one Fab)
# B8: CE115HA000 H96R one-arm antibody (antibody, human IgG1, kappa, L234A L235A, N297A, name in Kabat numbering)
# heavy: B1 heavy with H102R, T104G
# chain: B1 chain
# light: B1 light
# notes: one-arm antibody (one Fab)
# B9: CE115HA000 N53S one-arm antibody (antibody, human IgG1, kappa, L234A L235A, N297A, name in Kabat numbering)
# heavy: B1 heavy with N56S, T104G
# chain: B1 chain
# light: B1 light
# notes: one-arm antibody (one Fab)
# B10: CE115HA000 K64S one-arm antibody (antibody, human IgG1, kappa, L234A L235A, N297A, name in Kabat numbering)
# heavy: B1 heavy with K67S, T104G
# chain: B1 chain
# light: B1 light
# notes: one-arm antibody (one Fab)
# B11: CE115HA000 K75R one-arm antibody (antibody, human IgG1, kappa, L234A L235A, N297A, name in Kabat numbering)
# heavy: B1 heavy with K78R, T104G
# chain: B1 chain
# light: B1 light
# notes: one-arm antibody (one Fab)
# B12: CE115HA000 N54L one-arm antibody (antibody, human IgG1, kappa, L234A L235A, N297A, name in Kabat numbering)
# heavy: B1 heavy with N57L, T104G
# chain: B1 chain
# light: B1 light
# notes: one-arm antibody (one Fab)
# B13: CE115HA000 H96S one-arm antibody (antibody, human IgG1, kappa, L234A L235A, N297A, name in Kabat numbering)
# heavy: B1 heavy with H102S, T104G
# chain: B1 chain
# light: B1 light
# notes: one-arm antibody (one Fab)
# B14: CE115HA000 H96K one-arm antibody (antibody, human IgG1, kappa, L234A L235A, N297A, name in Kabat numbering)
# heavy: B1 heavy with H102K, T104G
# chain: B1 chain
# light: B1 light
# notes: one-arm antibody (one Fab)
# B15: CE115HA000 K64Q one-arm antibody (antibody, human IgG1, kappa, L234A L235A, N297A, name in Kabat numbering)
# heavy: B1 heavy with K67Q, T104G
# chain: B1 chain
# light: B1 light
# notes: one-arm antibody (one Fab)
# B16: CE115HA000 G100bF one-arm antibody (antibody, human IgG1, kappa, L234A L235A, N297A, name in Kabat numbering)
# heavy: B1 heavy with T104G, G108F
# chain: B1 chain
# light: B1 light
# notes: one-arm antibody (one Fab)
# B17: CE115HA000 H96P one-arm antibody (antibody, human IgG1, kappa, L234A L235A, N297A, name in Kabat numbering)
# heavy: B1 heavy with H102P, T104G
# chain: B1 chain
# light: B1 light
# notes: one-arm antibody (one Fab)
# B18: CE115HA000 S62P one-arm antibody (antibody, human IgG1, kappa, L234A L235A, N297A, name in Kabat numbering)
# heavy: B1 heavy with S65P, T104G
# chain: B1 chain
# light: B1 light
# notes: one-arm antibody (one Fab)
# B19: CE115HA000 G98Y one-arm antibody (antibody, human IgG1, kappa, L234A L235A, N297A, name in Kabat numbering)
# heavy: B1 heavy with T104Y
# chain: B1 chain
# light: B1 light
# notes: one-arm antibody (one Fab)
# B20: CE115HA000 H96G one-arm antibody (antibody, human IgG1, kappa, L234A L235A, N297A, name in Kabat numbering)
# heavy: B1 heavy with H102G, T104G
# chain: B1 chain
# light: B1 light
# notes: one-arm antibody (one Fab)
# B21: CE115HA000 G100bD one-arm antibody (antibody, human IgG1, kappa, L234A L235A, N297A, name in Kabat numbering)
# heavy: B1 heavy with T104G, G108D
# chain: B1 chain
# light: B1 light
# notes: one-arm antibody (one Fab)
# B22: CE115HA000 N53W one-arm antibody (antibody, human IgG1, kappa, L234A L235A, N297A, name in Kabat numbering)
# heavy: B1 heavy with N56W, T104G
# chain: B1 chain
# light: B1 light
# notes: one-arm antibody (one Fab)
# B23: CE115HA000 H96Y one-arm antibody (antibody, human IgG1, kappa, L234A L235A, N297A, name in Kabat numbering)
# heavy: B1 heavy with H102Y, T104G
# chain: B1 chain
# light: B1 light
# notes: one-arm antibody (one Fab)
# B24: CE115HA000 N76S one-arm antibody (antibody, human IgG1, kappa, L234A L235A, N297A, name in Kabat numbering)
# heavy: B1 heavy with N79S, T104G
# chain: B1 chain
# light: B1 light
# notes: one-arm antibody (one Fab)
# B25: CE115HA000 G100bY one-arm antibody (antibody, human IgG1, kappa, L234A L235A, N297A, name in Kabat numbering)
# heavy: B1 heavy with T104G, G108Y
# chain: B1 chain
# light: B1 light
# notes: one-arm antibody (one Fab)
# B26: CE115HA000 K75T one-arm antibody (antibody, human IgG1, kappa, L234A L235A, N297A, name in Kabat numbering)
# heavy: B1 heavy with K78T, T104G
# chain: B1 chain
# light: B1 light
# notes: one-arm antibody (one Fab)
# B27: CE115HA000 G100bL one-arm antibody (antibody, human IgG1, kappa, L234A L235A, N297A, name in Kabat numbering)
# heavy: B1 heavy with T104G, G108L
# chain: B1 chain
# light: B1 light
# notes: one-arm antibody (one Fab)
# B28: CE115HA000 G100bS one-arm antibody (antibody, human IgG1, kappa, L234A L235A, N297A, name in Kabat numbering)
# heavy: B1 heavy with T104G, G108S
# chain: B1 chain
# light: B1 light
# notes: one-arm antibody (one Fab)
# B29: CE115HA000 N54Y one-arm antibody (antibody, human IgG1, kappa, L234A L235A, N297A, name in Kabat numbering)
# heavy: B1 heavy with N57Y, T104G
# chain: B1 chain
# light: B1 light
# notes: one-arm antibody (one Fab)
# B30: CE115HA000 N54S one-arm antibody (antibody, human IgG1, kappa, L234A L235A, N297A, name in Kabat numbering)
# heavy: B1 heavy with N57S, T104G
# chain: B1 chain
# light: B1 light
# notes: one-arm antibody (one Fab)
# B31: CE115HA000 L78I one-arm antibody (antibody, human IgG1, kappa, L234A L235A, N297A, name in Kabat numbering)
# heavy: B1 heavy with L81I, T104G
# chain: B1 chain
# light: B1 light
# notes: one-arm antibody (one Fab)
# B32: CE115HA000 H96L one-arm antibody (antibody, human IgG1, kappa, L234A L235A, N297A, name in Kabat numbering)
# heavy: B1 heavy with H102L, T104G
# chain: B1 chain
# light: B1 light
# notes: one-arm antibody (one Fab)
# B33: CE115HA000 N82aD one-arm antibody (antibody, human IgG1, kappa, L234A L235A, N297A, name in Kabat numbering)
# heavy: B1 heavy with N86D, T104G
# chain: B1 chain
# light: B1 light
# notes: one-arm antibody (one Fab)
# Biological target: T1, CD3 epsilon homodimer protein (UniProt P07766 23-126)
# T1 construct: Immobilized on Sensor chip CM4 by amine coupling; construct not described; also called CD3 (CD3 epsilon)
# T1 sequence (P07766 23-126): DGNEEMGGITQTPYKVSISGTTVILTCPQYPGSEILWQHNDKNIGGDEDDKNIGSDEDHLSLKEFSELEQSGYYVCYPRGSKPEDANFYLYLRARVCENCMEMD
# Experiment: SPR Biacore T200, CD3 epsilon homodimer on CM4 chip, antibody as analyte;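 further: Amine-coupled CD3 epsilon homodimer, run at 25 °C in HBS-EP+ buffer, ratio is bound amount of each single-residue H chain variant over that of the parent antibody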
row,ratio of amounts bound (Y/X vs CE115HA000),Binder
1,1.05,B1
2,0.26,B2
3,0.84,B3
4,0.94,B4
5,0.42,B5
6,0.63,B6
7,1.1,B7
8,0.46,B8
9,0.83,B9
10,0.84,B10
11,1.01,B11
12,0.94,B12
13,0.44,B13
14,0.35,B14
15,0.89,B15
16,0.3,B16
17,0.12,B17

row,ratio of amounts bound (Y/X vs CE115HA000),Binder
1,1,B18
2,2.22,B19
3,0.43,B20
4,0.27,B21
5,0.88,B22
6,0.17,B23
7,0.92,B24
8,0.23,B25
9,0.84,B26
10,0.27,B27
11,0.52,B28
12,1.09,B29
13,0.84,B30
14,1.34,B31
15,0.14,B32
16,0.73,B33
